Experimental data: patent US20240076389A1 (NATIONAL RESEARCH COUNCIL OF CANADA, published 2024)
Substitutions are numbered along the chain they refer to.

Tests used:
[1] = target: T1, human AXL expressed on the cell surface of tumor cell lines (human, UniProt P30530 26-894); assay: cell-based or functional assay
T1 sequence (looked up): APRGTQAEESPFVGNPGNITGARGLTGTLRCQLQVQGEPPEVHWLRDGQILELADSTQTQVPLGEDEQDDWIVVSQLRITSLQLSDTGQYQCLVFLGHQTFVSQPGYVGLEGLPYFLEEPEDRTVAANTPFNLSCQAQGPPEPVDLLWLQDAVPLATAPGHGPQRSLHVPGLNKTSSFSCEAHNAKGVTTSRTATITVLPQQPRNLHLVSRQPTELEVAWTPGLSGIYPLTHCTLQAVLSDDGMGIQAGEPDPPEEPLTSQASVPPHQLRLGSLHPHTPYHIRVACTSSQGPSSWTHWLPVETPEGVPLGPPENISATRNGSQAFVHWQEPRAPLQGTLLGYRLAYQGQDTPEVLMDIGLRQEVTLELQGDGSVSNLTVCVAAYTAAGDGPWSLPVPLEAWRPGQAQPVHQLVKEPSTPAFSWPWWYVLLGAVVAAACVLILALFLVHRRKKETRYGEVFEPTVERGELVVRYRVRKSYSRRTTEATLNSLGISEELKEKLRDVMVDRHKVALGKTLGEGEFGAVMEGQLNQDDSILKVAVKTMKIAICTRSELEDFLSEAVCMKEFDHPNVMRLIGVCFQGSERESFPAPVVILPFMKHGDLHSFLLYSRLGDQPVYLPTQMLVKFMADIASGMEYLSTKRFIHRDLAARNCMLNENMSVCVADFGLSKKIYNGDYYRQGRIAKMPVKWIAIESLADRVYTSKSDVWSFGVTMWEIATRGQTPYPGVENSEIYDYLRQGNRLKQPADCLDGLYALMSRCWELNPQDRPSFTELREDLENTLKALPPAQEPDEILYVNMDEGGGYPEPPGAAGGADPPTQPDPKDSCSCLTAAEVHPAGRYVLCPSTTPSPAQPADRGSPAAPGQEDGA

[2] = target: T2, recombinant human AXL extracellular domain, C-terminally His8-tagged (rhAXL-ECD) (human, UniProt P30530 26-451); assay: SPR, AXL ECD immobilized, VHH monomer flowed, single-cycle kinetics
T2 construct: Made in CHO cells; also called (rh)AXL-ECD His8; human AXL ECD
T2 sequence: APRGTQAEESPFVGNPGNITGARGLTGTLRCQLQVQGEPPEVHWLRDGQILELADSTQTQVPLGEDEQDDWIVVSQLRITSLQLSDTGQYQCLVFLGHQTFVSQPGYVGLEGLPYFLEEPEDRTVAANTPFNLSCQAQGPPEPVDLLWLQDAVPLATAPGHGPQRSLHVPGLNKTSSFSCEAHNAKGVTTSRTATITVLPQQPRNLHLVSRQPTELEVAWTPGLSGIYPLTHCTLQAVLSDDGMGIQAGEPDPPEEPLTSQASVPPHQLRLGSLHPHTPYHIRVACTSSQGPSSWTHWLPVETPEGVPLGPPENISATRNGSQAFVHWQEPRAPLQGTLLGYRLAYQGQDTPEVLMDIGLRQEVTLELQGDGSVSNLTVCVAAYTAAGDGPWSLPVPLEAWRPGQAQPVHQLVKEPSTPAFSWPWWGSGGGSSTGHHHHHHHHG
Protocol: (§1) For VH Hs and VHH-Fcs, binding to human and cynomolgus AXL ECD was assessed using either a Biacore T200 instrument or a Biacore 3000 instrument. Either human AXL ECD or anti-human Fc antibody was immobilized on a research-grade CM5 series S sensor chip (T200, rhAXL ECD) or a C1 sensor chip (3000, anti-human Fc) using amine coupling in acetate buffer. VHH-Fcs were captured on anti-human Fc surfaces. Either monomeric VHHs (for rhAXL ECD surfaces) or human and cyno AXL ECD (for VHH-Fc surfaces) were flowed over the surfaces at different concentration ranges. Running buffers were HBS-EP (3000) and HBS-EP+(T200). Flow rates were 10-40 ul/min. All binding studies were performed at 25° C. Surfaces were regenerated using 10 mM glycine, pH 1.5.

[3] = target: T2, recombinant human AXL extracellular …; assay: SPR Biacore T200, mAb captured on anti-Fc, AXL ECD flowed, single-cycle kinetics
Protocol: (§2) Surface plasmon resonance. For murine mAbs, binding to human and cynomolgus AXL ECD was assessed using a Biacore T200 instrument. Briefly, either anti-mouse or anti-human Fc antibody was immobilized on a research-grade CM5 series S sensor chip using amine coupling in acetate buffer. Murine or recombinant chimeric murine-human mAbs (mouse VH/VL; human constant regions) were captured, then recombinant human or cyno AXL ECD was flowed over the surface at different concentration ranges (0.1-500 nM) depending on the antibody. The running buffer was PBS/Tween-20 and the flow rate 100 uL/min. All binding studies were performed at 25° C. Surfaces were regenerated using 10 mM glycine, pH 1.5.

[4] = target: T3, recombinant cynomolgus AXL extracellular domain (cynomolgus); assay: as above
T3 construct: range 1-449; also called Cyno AXL; cyno AXL ECD
Protocol: as §2

[5] = target: T2, recombinant human AXL extracellular …; assay: SPR, AXL ECD immobilized, VHH monomer flowed, multi-cycle kinetics
Protocol: as §1

B1: hFc-F107-7H5-DM1 (antibody, human IgG1, kappa, V domains shown)
VH: QVQLQQPGAELVKPGASVKLSCKASGYTFTSYWINWVKQRPGQGLEWIGNIYPDSSSTNYNEKFKSKATLTVDKSSTTAYIQFSSLTSEDSAVYYCTRDTYGGSPDYWGQGTTLTVSS
VL: DIVMSQSPSSLAVSAGEKVTMSCKSSQSLLNSRTRKIYLAWYQQKPGQSPKLLIYWASTRQSGVPDRFTGSGSGTDFTLTISSVQAEDLAVYYCKQSYNLWTFGGGTKLEIKR
modifications: DM1 through SMCC linker on lysine residues; sites not given
IC50 of growth inhibition (CellTiterGlo, 5 days) of NCI-H292 cells, -Gas6 [1]: 0.014 nM
IC50 of growth inhibition of NCI-H292 cells, +Gas6 (2 µg/mL) [1]: 0.098 nM

B2: hFc-F107-8D12-DM1 (antibody, human IgG1, kappa, V domains shown)
VH: QVQLQQPGAELVKPGASVQLSCKASGYTFISFWINWVKQRPGQGLEWMGNIFPGSSSTNYNEKFKSKATLTVDKSSSTAYMQLSSLTSEDSAVYFCARDYYGGSPDYWGQGTTLTVSS
VL: B1 VL with K18R, S32T, I37N, Q61E
modifications: DM1 through SMCC linker on lysine residues; sites not given
IC50 of growth inhibition (CellTiterGlo, 5 days) of NCI-H292 cells, -Gas6 [1]: 0.011 nM
IC50 of growth inhibition of NCI-H292 cells, +Gas6 (2 µg/mL) [1]: 0.296 nM

B3: NRC-sdAb001 (VHH monomer) (VHH)
VHH: QVKLEESGGGLVQAGGSLRLSCTASASISSFDIMGWYRQAPGKQRELVAAITTLDIANYRDSVKGRFTISRDNAKNTVYLQMDSLKPEDTARYHCAAFQSDQNYWGQGTQVTVSS
notes: Llama VHH made as 6xHis- and Myc-tagged monomer in E. coli; not shown: 6xHis and Myc tags
Kd [2]: 4 nM
koff [2]: 0.037 s⁻¹
kon [2]: 8.5e+06 M⁻¹ s⁻¹

B4: hFc-F111-5E9-VC-MMAE (antibody, human IgG1, kappa, V domains shown)
VH: QIQLVQSGPELKKPGETVKISCKASGYTFTKYGMNWVKQAPGKGLKWMGWINTYTGEPTYADDFKGRFAFSLETSASTAYLQINNLTTEDMVTYFCAKGGYYSNPIYPMDYWGQGTSVTVSS
VL: DIQMTQTTSSLSASLGDRVTISCRASQDINNYLNWYQQKPDGTVKLLIYYISRLHSGVPSRFSGSGSGTDYSLTISNLELEDVATYFCQQGNTLPFTFGSGTKLEIKR
modifications: VC-MMAE conjugate; attachment sites not given
IC50 of growth inhibition (CellTiterGlo, 5 days) of NCI-H292 cells, -Gas6 [1]: ~1 nM

B5: hFC-F111-3C8 (antibody, human IgG1, kappa, V domains shown)
VH: QVQLQQPGAELGKPGTSVKLSCKASGYTFTSYWMHWVKRVPGQGLEWIGNINPNSTSADYNEKFKRKATLTVDKSSSTAYMQLSTLTSEDSAVYYCTRPLMGPYWYFDVWGTGTTVTVSS
VL: QIVLTQSPAIMSASPGEKVTISCSASSSVSYMYWYQQKPGSSPKPWIYRTSNLASGVPARFSGSGSGTSYSLTISSMEAEDAATYYCQQYHNYPPTFGGGTKLEIKR
notes: Chimeric mAb, human IgG1 / human kappa constant regions; also called mAb F111-3C8; chimeric F111-3C8
Kd [3]: 12 nM
koff [3]: 0.001 s⁻¹
kon [3]: 86000 M⁻¹ s⁻¹
Kd [4]: 18 nM
koff [4]: 0.0011 s⁻¹
kon [4]: 60000 M⁻¹ s⁻¹

B6: mIgG-F155-3C7-DM1 (antibody, V domains shown)
VH: QVQLQQPGTELVKPGASVKLSCKASGYIFTNFWINWVKQRPGQGLEWIGNIFPGSNSSNYNEKFKNKATLTVDKSSSTAYMHLSSLTSEDSAVYYCVRDYYGGSPDYWGQGTTLTVSS
VL: DIVMSQSPSSLAVSAGEKVTMSCKSSQSLLNSKTRKNYLAWYQQKPGQSPKLLIYWASTRESGVPARFTGSGSGTDFTLTISSVQAEDLAIYYCKHSYNLWTFGGGTKLEIR
modifications: DM1 through SMCC linker on lysine residues of the antibody; sites not given
IC50 of growth inhibition (CellTiterGlo, 5 days) of NCI-H292 cells, -Gas6 [1]: 0.327 nM
IC50 of growth inhibition of NCI-H292 cells, +Gas6 (2 µg/mL) [1]: 3.9 nM

B7: mIgG-F149-4G4-DM1 (antibody, V domains shown)
VH: QIQLVQSGPELKKPGETVKISCKTSGYTFTYYGINWVKQAPGKGLEWMGWINTYLGEPTYADDFKGRFAFSLETSASTAYLQINNLRDEDMATYFCTRGTMSYSFDYWGQGTALTVSS
VL: QNVLTQSPAIMSASPGEEVTMTCRASSSVSSSYLHWYQQKSGASPKLWIYSTSKLASGVPARFSGSGSGTSYSLTISSVEAEDAATYYCHQYSGDPLTFGSGTKLEVK
modifications: DM1 through SMCC linker on lysine residues of the antibody; sites not given
IC50 of growth inhibition (CellTiterGlo, 5 days) of NCI-H292 cells, -Gas6 [1]: 0.015 nM
IC50 of growth inhibition of NCI-H292 cells, +Gas6 (2 µg/mL) [1]: 0.013 nM

B8: NRC-sdAb003 (VHH monomer) (VHH)
VHH: QVQLVESGGGLVQAGGSLRLSCAASGVTLDYTAIGWFRQAPGKERELVAAITSGGNTDYAESAKGRFRISRDNSKNTIYLQMNSLKPEDTGVYYCAARRGGARGEYDYWDQGTQVTVSS
notes: Llama VHH monomer; not shown: 6xHis and Myc tags
Kd [2]: 955 nM
koff [2]: 0.0054 s⁻¹
kon [2]: 8500 M⁻¹ s⁻¹

B9: NRC-sdAb006 (VHH monomer) (VHH)
VHH: QVKLEESGGGLVQAGASLRLSCVASESIFGFNTMGWYRQAPGNERELVASISNSKRTMYADSVKGRFTISRDNAKNTVNLQMNNLKPEDTAVYYCRAWGIITSATVYWGQGTQVTVSS
notes: as for B8
Kd [5]: 19 nM
koff [5]: 0.0045 s⁻¹
kon [5]: 240000 M⁻¹ s⁻¹

B10: NRC-sdAb005 (VHH monomer) (VHH)
VHH: QVKLEESGGGLAQAGGSLRLSCAASGSISSINTIGWFRQAPGKQRELVAASDSGANRNYADSVKGRFTISRDNAKNTVYLQMNNLKPEDTAIYYCRAWGTGTISTMYWGQGTQVTVSS
notes: as for B8
Kd [5]: 58 nM
koff [5]: 0.0097 s⁻¹
kon [5]: 170000 M⁻¹ s⁻¹
